# Key:
# [1] = target: T1, octameric peptide AVSEATIR
# T1 chain: AVSEATIR
# [2] = target: T2, peptide AQYPQEVITTVRG (PhoP)
# T2 chain: AQYPQEVITTVRG
# [3] = target: T3, peptide ATVAKCVEALKERFQASLRD (PheT)
# T3 chain: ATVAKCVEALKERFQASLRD
# [4] = target: T4, peptide ELNREQKWQMMLSKSMRR (CaiF)
# T4 chain: ELNREQKWQMMLSKSMRR
# [5] = target: T5, peptide KHVQALDLSMRFR (Nicotinate-nucleotide diphosphorylase)
# T5 chain: KHVQALDLSMRFR
# [6] = target: T6, peptide KLLRLFFPLSLRV (PhoQ)
# T6 chain: KLLRLFFPLSLRV
# [7] = target: T7, peptide KTPLAVLQSTLRS (PhoQ)
# T7 chain: KTPLAVLQSTLRS
# [8] = target: T8, peptide KTPLAVLQSTLRSLR (PhoQ)
# T8 chain: KTPLAVLQSTLRSLR
# [9] = target: T9, peptide KWQMMLSKSMRR (CaiF)
# T9 chain: KWQMMLSKSMRR
# [10] = target: T10, peptide LAVLQSTLRSLRS (PhoQ)
# T10 chain: LAVLQSTLRSLRS
# [11] = target: T11, peptide LLRLFFPLSLRV (PhoQ)
# T11 chain: LLRLFFPLSLRV
# [12] = target: T12, peptide LTELNREQKWQMMLSKSMRR (CaiF)
# T12 chain: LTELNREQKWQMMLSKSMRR
# [13] = target: T13, peptide LTHSLKTPLAVLQSTLRS (PhoQ)
# T13 chain: LTHSLKTPLAVLQSTLRS
# [14] = target: T14, peptide NTHRGMGYSLRGL (CreB)
# T14 chain: NTHRGMGYSLRGL
# peptide RLLPAVSEATIRRL = target: T15, peptide RLLPAVSEATIRRL
# T15 chain: RLLPAVSEATIRRL
# [15] = target: T16, peptide VAKCVEALKERFQASLRD (PheT)
# T16 chain: VAKCVEALKERFQASLRD
# [16] = target: T17, peptide VEALKERFQASLRD (Phenylalanyl-tRNA synthetase)
# T17 chain: VEALKERFQASLRD
protein,measurement,setting,value
"Recombinant YcfD, N-terminally hexa-His tagged (E. coli) (protein) MEYQLTLNWPDFLERHWQKRPVVLKRGFNNFIDPISPDELAGLAMESEVDSRLVSHQDGKWQVSHGPFESYDHLGETNWSLLVQAVNHWHEPTAALMRPFRELPDWRIDDLMISFSVPGGGVGPHLDQYDVFIIQGTGRRRWRVGEKLQMKQHCPHPDLLQVDPFEAIIDEELEPGDILYIPPGFPHEGYALENAMNYSVGFRAPNTRELISGFADYVLQRELGGNYYSDPDVPPRAHPADVLPQEMDKLREMMLELINQPEHFKQWFGEFISQSRHELDIAPPEPPYQPDEIYDALKQGEVLVRLGGLRVLRIGDDVYANGEKIDSPHRPALDALASNIALTAENFGDALEDPSFLAMLAALVNSGYWFFEG",position of hydroxylation (2D-NMR after incubation with YcfD),[1],2D-NMR analyses revealed the position of hydroxylation as at C-3 of the hydroxylated arginine-residue
same,% hydroxylation (+16 Da),[2],60%
same,% hydroxylation (+16 Da),[3],40%
same,% hydroxylation (+16 Da),[4],40%
same,% hydroxylation (+16 Da),[5],30%
same,% hydroxylation (+16 Da),[6],60%
same,% hydroxylation (+16 Da),[7],95%
same,% hydroxylation (+16 Da),[8],40%
same,% hydroxylation (+16 Da),[9],30%
same,% hydroxylation (+16 Da),[10],60%
same,% hydroxylation (+16 Da),[11],50%
same,% hydroxylation (+16 Da),[12],40%
same,% hydroxylation (+16 Da),[13],90%
same,% hydroxylation (+16 Da),[14],30%
same,"+16Da mass shift (hydroxylation, MALDI-TOF MS)",peptide RLLPAVSEATIRRL,gave a +16Da mass shift upon incubation with YcfD in an Fe(II) and 2OG dependent manner
same,% hydroxylation (+16 Da),[15],50%
same,% hydroxylation (+16 Da),[16],40%

# Source: US20140045930
